Measurements published in patent US20260266848A1, “COMPOSITIONS AND METHODS FOR DIAGNOSING AND TREATING DYSTONIA” (Duke University, priority 2023, published 2026).

B1: SLC2A1 (protein, UniProt P11166 1-492, looked up)
Solute carrier family 2, …: MEPSSKKLTGRLMLAVGGAVLGSLQFGYNTGVINAPQKVIEEFYNQTWVHRYGESILPTTLTTLWSLSVAIFSVGGMIGSFSVGLFVNRFGRRNSMLMMNLLAFVSAVLMGFSKLGKSFEMLILGRFIIGVYCGLTTGFVPMYVGEVSPTALRGALGTLHQLGIVVGILIAQVFGLDSIMGNKDLWPLLLSIIFIPALLQCIVLPFCPESPRFLLINRNEENRAKSVLKKLRGTADVTHDLQEMKEESRQMMREKKVTILELFRSPAYRQPILIAVVLQLSQQLSGINAVFYYSTSIFEKAGVQQPVYATIGSGIVNTAFTVVSLFVVERAGRRTLHLIGLAGMAGCAILMTIALALLEQLPWMSYLSIVAIFGFVAFFEVGPGPIPWFIVAELFSQGPRPAAIAVAGFSNWTSNFIVGMCFQYVEQLCGPYVFIIFTVLLVLFFIFTYFKVPETKGRTFDEIASGFRQGGASQSDKTPEELFHPLGADSQV
B2: MRC2 (protein, UniProt Q9UBG0 31-1479, looked up)
C-type mannose receptor 2: GAPGDAALPEPNVFLIFSHGLQGCLEAQGGQVRVTPACNTSLPAQRWKWVSRNRLFNLGTMQCLGTGWPGTNTTASLGMYECDREALNLRWHCRTLGDQLSLLLGARTSNISKPGTLERGDQTRSGQWRIYGSEEDLCALPYHEVYTIQGNSHGKPCTIPFKYDNQWFHGCTSTGREDGHLWCATTQDYGKDERWGFCPIKSNDCETFWDKDQLTDSCYQFNFQSTLSWREAWASCEQQGADLLSITEIHEQTYINGLLTGYSSTLWIGLNDLDTSGGWQWSDNSPLKYLNWESDQPDNPSEENCGVIRTESSGGWQNRDCSIALPYVCKKKPNATAEPTPPDRWANVKVECEPSWQPFQGHCYRLQAEKRSWQESKKACLRGGGDLVSIHSMAELEFITKQIKQEVEELWIGLNDLKLQMNFEWSDGSLVSFTHWHPFEPNNFRDSLEDCVTIWGPEGRWNDSPCNQSLPSICKKAGQLSQGAAEEDHGCRKGWTWHSPSCYWLGEDQVTYSEARRLCTDHGSQLVTITNRFEQAFVSSLIYNWEGEYFWTALQDLNSTGSFFWLSGDEVMYTHWNRDQPGYSRGGCVALATGSAMGLWEVKNCTSFRARYICRQSLGTPVTPELPGPDPTPSLTGSCPQGWASDTKLRYCYKVFSSERLQDKKSWVQAQGACQELGAQLLSLASYEEEHFVANMLNKIFGESEPEIHEQHWFWIGLNRRDPRGGQSWRWSDGVGFSYHNFDRSRHDDDDIRGCAVLDLASLQWVAMQCDTQLDWICKIPRGTDVREPDDSPQGRREWLRFQEAEYKFFEHHSTWAQAQRICTWFQAELTSVHSQAELDFLSHNLQKFSRAQEQHWWIGLHTSESDGRFRWTDGSIINFISWAPGKPRPVGKDKKCVYMTASREDWGDQRCLTALPYICKRSNVTKETQPPDLPTTALGGCPSDWIQFLNKCFQVQGQEPQSRVKWSEAQFSCEQQEAQLVTITNPLEQAFITASLPNVTFDLWIGLHASQRDFQWVEQEPLMYANWAPGEPSGPSPAPSGNKPTSCAVVLHSPSAHFTGRWDDRSCTEETHGFICQKGTDPSLSPSPAALPPAPGTELSYLNGTFRLLQKPLRWHDALLLCESRNASLAYVPDPYTQAFLTQAARGLRTPLWIGLAGEEGSRRYSWVSEEPLNYVGWQDGEPQQPGGCTYVDVDGAWRTTSCDTKLQGAVCGVSSGPPPPRRISYHGSCPQGLADSAWIPFREHCYSFHMELLLGHKEARQRCQRAGGAVLSILDEMENVFVWEHLQSYEGQSRGAWLGMNFNPKGGTLVWQDNTAVNYSNWGPPGLGPSMLSHNSCYWIQSNSGLWRPGACTNITMGVVCKLPRAEQSSFSPSALPENPAALVVVLMAVLLLLALLTAALILYRRRQSIERGAFEGARYSRSSSSPTEATEKNILVSDMEMNEQQE
B3: BZW2 (protein, UniProt Q9Y6E2 1-419, looked up)
eIF5-mimic protein 1: MNKHQKPVLTGQRFKTRKRDEKEKFEPTVFRDTLVQGLNEAGDDLEAVAKFLDSTGSRLDYRRYADTLFDILVAGSMLAPGGTRIDDGDKTKMTNHCVFSANEDHETIRNYAQVFNKLIRRYKYLEKAFEDEMKKLLLFLKAFSETEQTKLAMLSGILLGNGTLPATILTSLFTDSLVKEGIAASFAVKLFKAWMAEKDANSVTSSLRKANLDKRLLELFPVNRQSVDHFAKYFTDAGLKELSDFLRVQQSLGTRKELQKELQERLSQECPIKEVVLYVKEEMKRNDLPETAVIGLLWTCIMNAVEWNKKEELVAEQALKHLKQYAPLLAVFSSQGQSELILLQKVQEYCYDNIHFMKAFQKIVVLFYKADVLSEEAILKWYKEAHVAKGKSVFLDQMKKFVEWLQNAEEESESEGEEN

Each molecule was assayed on DYT1 patient plasma derived EVs (assay: Plasma-derived EV proteomics (ExoQuick ULTRA, DIA LC/MS/MS), DYT1 vs Healthy Controls). Conditions: Hs. Plasma EVs (DYT1/WT); significance of genotype difference.
Design: species or system human
Description: Data was obtained for extracellular vesicles using previously acquired samples. The ExoQuick® ULTRA EV Isolation System was used to fractionate and enrich EVs from plasma. Isolated plasma EV samples were then submitted to proteomic analysis by the Duke Proteomics and Metabolomics Core Facility (DPMCF). At the DPMCF, quantitative (LC/MS/MS) was performed on 500 ng of each sample, using an EvoSep One UPLC system coupled to a Thermo Orbitrap Astral high-resolution accurate mass tandem mass spectrometer (Thermo). Briefly, the sample was eluted directly from an Evotip which was subjected to a low organic wash and then subjected to an analytical separation using a 1.7 μm EvoSep 150 um ID×15 cm endurance (EveoSep) column running an SPD30 gradient from approximately 5 to 30% acetonitrile with 0.1% formic acid with a column temperature of 50 C. Data collection on the Orbitrap Astral mass spectrometer was performed in a data-independent acquisition (DIA) mode of acquisition with a r=240,000 (@m/z 200) full MS scan from m/z 380-980 with a target AGC value of 4e5 ions. Fixed DIA, windows of 4 m/z from m/z 380 to 980 DIA MS/MS scans were acquired in the Astral with a target AGC value of 5e4 and a max fill time of 6 ms. HCD collision energy setting of 27% was used for all MS2 scans.
B1 was tested, and the “-LogP” value was 1.635.
With B2 the “-LogP” value was 1.456.
With B3 the “-LogP” value was 1.385.
